Assay results as given in article PMC8015430 (Immunity, 2021).

B1: COVA2-39 (antibody, V domains shown)
VH: QVQLVETGGGLIQPGGSLRLSCAASGFTVSSNYMSWVRQAPGKGLEWVSVIYTGGTTYYADSVKGRFTISRDNSKNTLYLQMNSLRAEDTAVYYCARAHVDTAMVESGAFDIWGQGTRVTVSS
VL: QSALTQPASVSGSPGQSITISCTGTSSDVGSYNLVSWYQQHPGKAPKLMIYEVTKRPSGVSNRFSGSKSGNTASLTISGLQAEDEADYYCCSYAGSSTWVFGGGTKLTVL
notes: IgG; RBD Class 2
B2: COVA1-16 (antibody, V domains shown)
VH: QVQLVQSGAEVKKPGASVKVSCKASGYTFTSYYMHWVRQAPGQGLEWMGIINSSGGSTSYAQKFQGRVTMTRDTSTSTVYMELSSLRSEDTAVYYCARPPRNYYDRSGYYQRAEYFQHWGQGTLVTVSS
VL: DIQLTQSPSSLSASVGDRVTITCQASQDISNYLNWYQQRPGKAPKLLIYDASNLETGVPSRFSGSGSGTDFTFTISSLQPEDIATYYCQQYDNPPLTFGGGTKLEIK
notes: IgG; RBD Class 4

Target: T1, Recombinant Stabilized SARS-CoV-2 Spike (SARS-CoV-2, Wuhan-Hu-1 reference (wave …, UniProt P0DTC2, stabilised))
T1 construct: also called Pre-fusion, stabilized and uncleaved SARS-CoV-2 Spike (pcDNA3.1+)
Assay: ELISA
Details: both partners purified

| Binder | binding result |
| --- | --- |
| B1 | binds |
| B2 | binds |
